# Source: the supplement of paper PMC12855868
# B1: library; numbered along this chain (parent)
# chain: MAAAGGARLLRAASAVLGGPAGRWLHHAGSRAGSSGLLRNRGPGGSAEASRSLSVSARARSSSEDKITVHFINRDGETLTTKGKVGDSLLDVVVENNLDIDGFGACEGTLACSTCHLIFEDHIYEKLDAITDEENDMLDLAYGLTDRSRLGCQICLTKSMDNMTVRVPETVADARQSIDVGKTS
# Variants of: B1
# Assay: scaled log2 fold change in cell abundance, elesclomol vs control (0 = silent mean, 1 = nonsense mean) (scaled log2 ratio); higher = higher viability under elesclomol (loss of FDX1 cuproptosis function)
# Settings: glucose 10 mM
# Procedure: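 Deep mutational scan of full-length human FDX1: a pooled saturation-mutagenesis ORF library (every residue 2-184 mutated to all 19 amino acids plus stop, and silent codons where available) was expressed by lentivirus in FDX1-knockout ABC1 (14 days) or HEK293T (11 days) cells grown with elesclomol (ES) or DMSO control. Variant abundance came from ORF sequencing. The log2 fold change (ES vs control, mean of duplicates) was centred on the silent-variant mean (0) and scaled to the nonsense-variant mean (1). Higher values mean greater viability under ES, i.e. loss of FDX1 function in cuproptosis.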
# [1] = with ABC1 FDX1 KO, elesclomol 5 nM, 14 days
# [2] = with HEK293T FDX1 KO, elesclomol 40 nM, 11 days
# 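Also: variant abundance is its share of total variant reads in each endpoint sample, from next-generation sequencing of the integrated ORF PCR-amplified out of genomic DNA.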
Variant,scaled log2 fold change [1],scaled log2 fold change [2]
G29W,0.42,0.76
G29M,-0.124,-0.568
G29P,-0.415,-0.6
G29Y,-0.628,–
G29C,0.0521,-0.731
G29R,-0.244,-0.0867
G29E,0.324,0.361
G29T,-0.284,-0.357
G29K,-0.417,1.26
G29F,-0.118,-0.149
G29S,0.00542,-0.441
G29V,-0.87,–
G29D,0.238,–
G29I,0.147,-1.13
G22F,0.555,–
G22E,-0.42,-0.0922
G22H,0.331,0.022
G22R,-0.188,–
G22V,0.245,–
G22Y,0.703,0.208
G22I,0.314,0.699
G22A,0.412,–
G22K,0.385,0.488
G22C,-0.919,–
G22L,-0.306,–
G22P,0.294,–

Variant,scaled log2 fold change [1],scaled log2 fold change [2]
G22M,0.793,–
G22T,-0.511,-0.29
V16C,0.174,0.501
V16D,0.0655,-0.0447
V16E,-0.716,–
V16S,0.228,-0.117
V16R,-0.0133,–
V16A,-0.668,–
V16P,-0.0976,0.175
V16M,0.215,0.406
V16I,-0.31,–
V16T,0.119,-0.636
V16K,0.121,0.118
V16L,0.316,-0.316
V16F,-0.9,0.654
V16N,-0.645,-0.143
V16Y,0.461,0.705
V16Q,0.575,–
V16G,-0.0956,0.0318
V16W,-0.405,–
R23I,0.309,–
R23M,0.474,-0.139
R23D,0.199,–
R23K,0.498,–
R23W,0.348,0.553
R23C,0.413,0.458

Variant,scaled log2 fold change [1],scaled log2 fold change [2]
R23P,-0.138,0.465
R23E,0.00775,–
R23N,0.598,-0.335
R23T,-0.164,-0.141
R23S,-0.477,–
R23Q,0.00392,–
R23Y,-0.603,–
G18S,0.392,0.921
G18W,-0.00826,-0.224
G18V,0.494,-0.0846
G18P,0.0386,–
G18D,-0.233,0.58
G18L,-0.655,0.123
G18Q,-0.43,0.977
G18F,0.00932,0.79
G18C,0.14,0.923
G18A,-0.164,0.946
G18Y,0.0736,0.324
G18N,0.408,0.649
G18R,0.241,-0.618
G18T,0.225,0.0755
G18H,0.0847,-0.242
G18K,0.322,0.179
G18M,0.0948,0.156
G18I,0.0859,-0.0341
G18E,-0.165,-0.152

Variant,scaled log2 fold change [1],scaled log2 fold change [2]
W24M,0.24,-0.653
W24V,0.155,-0.39
W24L,0.45,–
W24R,-0.838,-0.244
W24E,0.458,-0.438
W24F,0.286,0.448
W24C,0.00637,-0.0787
W24H,0.42,-0.545
W24K,-0.318,-0.743
W24N,-0.222,0.318
W24Q,-0.175,0.364
W24I,-0.0623,–
A21G,0.106,-0.283
A21M,-0.216,-0.139
A21Y,-0.187,–
A21C,-0.145,-0.0664
A21H,-0.455,-0.00969
A21Q,-0.931,0.318
A21K,-0.827,–
A21L,0.235,0.118
A21E,-0.0483,-0.444
A21S,0.463,-0.189
A21I,0.0825,0.0632
A21T,-0.223,-0.058
A21R,-0.644,-0.0217
A21V,0.197,–

Variant,scaled log2 fold change [1],scaled log2 fold change [2]
A21D,0.168,-0.0523
A21P,0.0803,–
A21N,-0.1,-0.618
A21F,-0.268,0.113
L17Q,-0.0277,-0.517
L17H,-0.27,-0.167
L17V,-0.232,–
L17K,-0.392,-0.386
L17I,-0.552,-0.833
L17W,0.321,-0.126
L17D,0.342,0.653
L17G,0.217,-0.178
L17Y,-0.147,0.613
L17S,0.386,0.458
L17F,-0.361,0.252
L17T,0.262,-0.223
L17C,0.0553,0.966
L17M,0.05,0.0514
L17E,0.227,–
L17R,-0.051,0.603
L17P,-0.107,–
L17N,0.306,–
L17A,-0.194,–
L25V,0.553,–
L25E,-0.135,-0.0782
L25A,-0.505,–

Variant,scaled log2 fold change [1],scaled log2 fold change [2]
L25N,-0.498,–
L25P,0.318,1.23
L25T,0.536,–
L25M,0.607,1.17
L25D,-0.703,–
L25G,-0.623,–
L25W,0.28,0.019
L25Q,-0.0213,-1.08
L25H,0.124,-0.423
L25Y,0.423,0.926
L25S,0.221,–
L25K,0.14,1.29
L25C,0.238,0.0546
L25R,0.126,0.222
H27I,-0.11,1.23
H27P,-0.143,–
H27N,-0.105,0.565
H27Q,0.286,-0.318
H27F,0.196,0.363
H27E,-0.316,-0.0257
H27V,0.305,0.364
H27D,-0.0235,-0.507
H27Y,-0.231,0.0795
H27T,-0.307,–
H27R,0.168,-0.247
H27S,0.273,–

Variant,scaled log2 fold change [1],scaled log2 fold change [2]
H27L,0.396,–
H27M,0.0388,–
H27A,-0.0135,0.337
H27W,-0.436,0.305
H27G,0.0381,-0.171
H27K,0.325,0.621
H27C,0.145,-0.412
A15F,-0.0557,-0.87
A15K,-0.22,-0.495
A15I,-0.367,-0.0209
A15D,0.405,0.431
A15W,0.0842,-0.229
A15N,-0.0399,-0.856
A15V,0.02,–
A15E,0.311,-0.231
A15H,0.0941,-0.215
A15Q,0.208,0.886
A15Y,-0.822,–
A15S,0.137,0.0336
A15T,0.322,-0.179
A15L,-0.153,-0.301
A15G,-0.419,0.437
A15M,-0.0208,0.445
A15P,0.172,0.337
H26D,0.267,0.193
H26W,0.101,-0.281

Variant,scaled log2 fold change [1],scaled log2 fold change [2]
H26E,0.356,0.955
H26T,0.206,0.037
H26M,0.23,–
H26A,0.684,1.75
H26G,-0.196,-0.699
H26N,0.169,-0.198
H26L,0.346,0.304
H26F,0.206,-0.237
H26Y,0.147,-0.00505
H26R,-0.169,-0.571
H26S,0.241,–
H26C,-0.0138,–
H26Q,0.0786,1.39
H26P,-0.00391,–
H26K,0.352,–
A28G,0.336,1.17
A28E,0.301,-0.431
A28I,-0.00142,0.691
A28H,-0.736,-0.127
A28Y,-0.00855,0.974
A28V,0.133,-0.408
A28L,-0.00195,–
A28S,-0.179,-0.13
A28P,0.56,0.292
A28N,-0.0865,-0.0101
A28K,-0.114,0.248

Variant,scaled log2 fold change [1],scaled log2 fold change [2]
A28C,0.232,0.15
A28T,-0.152,–
A28M,-0.0504,-0.198
A28D,0.233,-0.109
A28Q,0.264,0.224
A28W,-0.122,0.863
A28R,0.246,2.14
A28F,0.368,0.0914
G19N,-0.0111,0.0883
G19T,0.117,0.837
G19W,0.277,-0.266
G19V,-0.0119,1.01
G19M,-0.0059,-0.191
G19I,0.0203,-0.0307
G19Y,0.187,-0.867
G19L,-0.367,0.0638
G19Q,0.00839,-0.000362
G19P,0.54,–
G19D,0.233,0.874
G19E,0.246,-0.028
G19K,-0.0528,-0.256
G19H,0.674,–
G19F,0.0719,0.185
G19A,-0.167,-0.0193
G19S,0.267,0.0205
G19R,0.483,1.5

Variant,scaled log2 fold change [1],scaled log2 fold change [2]
G19C,-0.0683,-0.489
P20C,0.163,-0.287
P20T,0.221,–
P20S,-0.324,–
P20A,-0.601,0.0404
P20K,0.251,–
P20W,-0.19,-0.657
P20L,0.585,-0.772
P20N,-0.129,–
P20F,-0.201,–
P20H,-0.216,0.0304
P20E,0.162,1.08
P20Y,0.0978,0.987
P20Q,-0.5,1.13
P20D,-0.0903,–
P20I,0.419,0.171
P20M,-0.56,–
P20G,0.37,–
